Data as given in patent US20250051463A1, “CD123 ANTIBODY-DRUG CONJUGATES AND METHODS OF USING THE SAME” (ASTRAZENECA AB, priority 2023, published 2025).

Test system: healthy donor BMMC
Experiment: Colony forming unit (CFU) assay
Assay type: cell-based, human
Conditions: 24 hours treatment, colonies at 14 days
Description: The potency of HT12-GL ADC (HT12-GL-SG3932) was compared to CD33 Mylotarg ADC and isotype ADC in colony forming unit (CFU) assays. For colony forming unit assays, primary healthy donor samples and AML patient samples were subjected to a dose titration of HT12-GL ADC (HT12-GL-SG3932), Isotype ADC, or Mylotarg for 24 hours. Cells were subsequently mixed in Methocult (StemCell) and seeded in 6-well SmartDish's (StemCell). Colonies were counted at 14 days post-seeding using a STEMvision instrument (StemCell). EC50 values were calculated based on the reduction of colonies following drug treatment compared to control groups.

Substance: Mylotarg: CD33 ADC Mylotarg [reference compound]
- CFU toxicity in healthy donor BMMC: toxic
